# Data: the nanobody polyreactivity screen of Harvey et al. (2022)
# Experiment: yeast display, Sf9 membrane polyspecificity reagent, FACS + sequencing; frameworks hold sequencing errors
# Outline: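 Nanobodies came from a synthetic yeast display library in Saccharomyces cerevisiae BJ5465, induced with galactose for 36–48 hours and stained for 1 hour at 4 °C with 10% biotinylated, detergent-solubilized Sf9 membrane reagent. Cells were enriched on streptavidin microbeads and then FACS-sorted, with low and high (top ~1%) gates set on anti-HA fluorescence for expression and streptavidin fluorescence for reagent binding. Each polyreactivity label reflects the gate a clone came from. Genes were amplified by colony PCR, sequenced by MiSeq 2 × 250 and filtered by CDR length.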
row,Sequence,polyreactivity (PSR sort gate)
1,QVQLVESGGGLVQAGGSLRLSCAASGRTFGQNTMGWYRQAPGKERELVAAIRNRGGSTYYADSVKGRFTISRDNAKKTGYVQMNSLKPEDTAVYYCAAYPYWKGDYWGQGTQVTVSS,high polyreactivity
2,QVQLVESGGGLVQAGGSLRLSCAASGRTFGQYAMGLYRQAPGKERELVAAITTRGGSTYYADSVKGRFTISRDNAKNTVYLQMNSLKPEDTAVYYCNADYPVKRRRGRDYWGQGTQVTVSS,high polyreactivity
3,QVQLVESGGGLVQAGGSLRLSCAASGRTFGQYAMGWYRQAPGKEREFVAAITSSGGSTYYADSVNGRFTISRDNAKNTVYLLMNSLNPEDTAVYYCAAPISRSAGWDSYDYWGQGTQVTVSS,low polyreactivity
4,QVQLVESGGGLVQAGGSLRLSCAASGRTFGQYVMGWYREAPGKERELVAAIRSGGSTYYADSVKGRFTISRDNAKNTVYLQMNSLKPEDTAVYYCANETYYGTDNFGQVGGEMDYWGQGTQVTVSS,low polyreactivity
5,QVQLVESGGGLVQAGGSLRLSCAASGRTFGRNAMGWYRQAPGKERELVAAISLRGGRTYYADSVKGRFTISRDNAKNTVYLQMNSLKPEDTAVYYCAAVQPVGLYPRTKYYYWGQGTQVTVSS,high polyreactivity
6,QVQLVESGGGLVQAGGSLRLSCAASGRTFGRNAMGWYRQAPGKERELVAAISSSADRTYYADSVKGRFTISRDNAKNNVYVEMNSLKPEDTAVYYCAARTFWGAYDYWGQGTQVTVSS,high polyreactivity
7,QVQLVESGGGLVQAGGSLRLSCAASGRTFGRNAMGWYRQAPGKERELVAAISSSGGRTYYADSVKGRFTISRDNAKNTVYLQMNSLKPEDTAVYYCNALTYYRDYWGQGTQVTVSS,high polyreactivity
8,QVQLVESGGGLVQAGGSLRLSCAASGRTFGRNAMGWYRQATGKERELVAPISRDGSTYYADSVKGRFTISRDNAKNTVYLQMNSLKPEDTAVYYCAADRPWYYTLTPIHGYDYWGQGTQVTVSS,low polyreactivity
9,QVQLVESGGGLVQAGGSLRLSCAASGRTFGRNVMGWYRQAPGKERELVAAISRSGGSTYYADSVKGRFTISRDNAKNTVYLQINSLKPEDTAVYYCAAYSVGDYYWGQGTQVTVSS,high polyreactivity
10,QVQLVESGGGLVQAGGSLRLSCAASGRTFGRYALGWYRQAPGKERELVATITSGGSTNYADSVKGRFTISRDNAKNTVYLQMNSLKPEDTAVYYCAAEFSPSRWAYSEGALRYNYWGQGTQVTVSS,low polyreactivity
11,QVQLVESGGGLVQAGGSLRLSCAASGRTFGRYAMGGYRQAPGKERELVAAINSGGSTYYADSVKGRFTISRDNAKNTVYLQMNSLKPEDTAVYYCAADWYYWGFIFDYWGQGTQVTVSS,high polyreactivity
12,QVQLVESGGGLVQAGGSLRLSCAASGRTFGRYAMGWSRQAPGKERELVATITSGGSTNYADSVKGRFTISRDNAKNTVYLQMNSLKPEDTAVYYCAAEFSPSRWAYSEGALRYNYWGQGTQVTVSS,low polyreactivity
13,QVQLVESGGGLVQAGGSLRLSCAASGRTFGRYAMGWYRQAPGKEREFVASMSRRGGTTYYADSVKGRFTISRDNEKNTVYLQMNSLNPEDTAVYYCNADRTVIYDYEYWGQGTQVTVSS,low polyreactivity
14,QVQLVESGGGLVQAGGSLRLSCAASGRTFGRYAMGWYRQAPGKERELVAAINRGGSTKYADSVKGRFTISRDNAKNTVYLQRNSQKPEDSAVYYCAKDLHPALHYDYWGQGTQVTVSS,low polyreactivity
15,QVQLVESGGGLVQAGGSLRLSCAASGRTFGRYAMGWYRQAPGKERELVAAISWSGGSTYYADSVKGRFTISRDNAKNSVYLQMNSLKPEDTAVYYCAAYEHVYVYDYWGQGTQVTVSS,low polyreactivity
16,QVQLVESGGGLVQAGGSLRLSCAASGRTFGRYAMGWYRQAPGKERELVAAISYSTDSTYYADSVKGRFTISRDNAKNTVYLQMNSLKPEDTAVYYCASDSVIVGSYVGDKHDYWGQGTQVTVSW,low polyreactivity
17,QVQLVESGGGLVQAGGSLRLSCAASGRTFGRYAMGWYRQAPGKERELVAVISWSDGGTNYADSVKGRFTISRDNAKNTVYLQMNSLKPEDTAVYYCNAELSFRYPVFRELDYWGQGTQVTVSS,low polyreactivity
18,QVQLVESGGGLVQAGGSLRLSCAASGRTFGRYAMGWYRQAPWKERELVAAITVGGGSTYYADSVKGRFTISRDNAKNTVYLQMNSLKPEDTAVYYCNALHTYTYRYDYYYWGQGTQVTVSS,high polyreactivity
19,QVQLVESGGGLVQAGGSLRLSCAASGRTFGRYTMGWYRQAPGKERELVAAITGRGGSTFYADSVKGRFTISRDYAKNTVYLQMNSLKPEDTAVYYCAARRTSIKDQFYYWGQGTQVTVSS,high polyreactivity
20,QVQLVESGGGLVQAGGSLRLSCAASGRTFGRYVMGWYIQAPGKERELVARISSAGGTNYADSVKGRFTISRDNAKNTVYLQMNSLKPEDTAVYYCNFTRYWRAHLGYYWGQGTQVTVSS,high polyreactivity
21,QVQLVESGGGLVQAGGSLRLSCAASGRTFGSNAMGWFIQAPGKERELVAAISSSDSTNYADSVKGRFTISRDNAKNTVYLQMNSLKPEETAVYYCNAGHPVRSPGYDYWGQGTQVTVSS,low polyreactivity
22,QVQLVESGGGLVQAGGSLRLSCAASGRTFGSNAMGWYRQAPGKERELVAAIRWGGGSTYYADSVKGRFTISRDNAKNTVYLQMNSLKPEDTAVYYCAAAYNWRKYDYWGQGTQVTVSS,high polyreactivity

row,Sequence,polyreactivity (PSR sort gate)
1,QVQLVESGGGLVQAGGSLRLSCAASGRTFGSNAMGWYRQAPGKERELVAAISVRGGRTYSADSVKGRFTISRDNAKNTVSLQMNSLKPEDTAVYYCAADPYPISKYWFYHAVDYDSWGQGTQVTVSS,high polyreactivity
2,QVQLVESGGGLVQAGGSLRLSCAASGRTFGSNTMGWYRQAPGKERELVAAISGTGTSTYYADSVKGRFTISRDNAKNTVYLQMNSLKQEDTAVYYCAAGWYKYLFQPHDYWGQGTQVTVSS,low polyreactivity
3,QVQLVESGGGLVQAGGSLRLSCAASGRTFGSYVMVWYRQAPGKEREFVAVISGSVGSTYYADSVKGRFTISRDNAKNTVYLQMNSLKPEDTAVYYCARRGIRTSETKQYHQYNYWGQGTQVTVSS,low polyreactivity
4,QVQLVESGGGLVQAGGSLRLSCAASGRTFGTNTMGWYRPAPGKERELVAAISRSGVRTYYADSVKGRFTISRDNAKNTVYLQMKSLKPEDTAVYYCATDYKVHGFDYWGQGTQVTVSS,high polyreactivity
5,QVQLVESGGGLVQAGGSLRLSCAASGRTFGTYAMGWYIQAPGKERELVAAIRSNAGSTYYADSVKGRFTISRDNAKNTVYLQMNSLKPEDNAVYYCAKSYRCSRRYNYWGQGTQVTVSS,high polyreactivity
6,QVQLVESGGGLVQAGGSLRLSCAASGRTFGTYAMGWYRQAPGKERELVAAISTRDGSTYYADSVKGRFTISRDNAKNTVYLQMNSLKPEDTAVYYCNATWSVPSGQYDYWGQGTQVTVSS,low polyreactivity
7,QVQLVESGGGLVQAGGSLRLSCAASGRTFGTYAMGWYRQAPGKERELVARISYTGGSTSYADSVKGRFTISRDNAKNTVYLQMNSLKPEDTAVYYCNASSRSGSWRFYYWGQGTQVTVSS,high polyreactivity
8,QVQLVESGGGLVQAGGSLRLSCAASGRTFGTYAMGWYRQEPGKERELFATISSGGSTYYADSVKGRFTISRDNAKNTVYLLMNSLKPEDTAVYYCAAYRYFRPGDYWGQGTQVNVSS,low polyreactivity
9,QVQLVESGGGLVQAGGSLRLSCAASGRTFGTYVMGWYRQAPGKERELVAAITGSGGSTYYADSVKGRFTISRDNAKNTVYLQMNSLKPEDPAVYYCAARAYQHYNWGQGTQVTVSS,high polyreactivity
10,QVQLVESGGGLVQAGGSLRLSCAASGRTFGVNAMGWYRQAPRKERELVARIRVSGGRTYYADSVKGRFTISRDNAKNSVYLLMNSLKPEDTAVYYCNAGDTYNRVIWPYYYCGQGTQVTVSS,high polyreactivity
11,QVQLVESGGGLVQAGGSLRLSCAASGRTFGVYAMGWYRQAPGKERELVAAIRWSGGGTYYADSVKGRFTISPDNAKNTVYLQMNSLKPEDTAVYYCAATFQNSPYTRYTDMYYWGQGTQVTVSS,low polyreactivity
12,QVQLVESGGGLVQAGGSLRLSCAASGRTFGVYAMGWYRQAPGKERELVAAISKSDGSTYYADSVKGRFTISRDNAKNTVYLQMNSLKPEDTAVYYCATVTRHQRDTQYDYWGQGTQVTVSS,low polyreactivity
13,QVQLVESGGGLVQAGGSLRLSCAASGRTFGVYAMGWYRQAPGKERELVAGIRWRGGSTYYADSVKGRFTISRDNAKNTVYLQMNSLKPEDTAVYYCAAKVYYLYDSIWAWVIIRYDYWGQGTQVTVSS,low polyreactivity
14,QVQLVESGGGLVQAGGSLRLSCAASGRTFGVYAMGWYRQAPGKERELVATIRRGGSTYYADSVKGRFTISRDNAKNTVYLQMNSLKPEDTAVYYCNASHVTWNRKYDYWGQGTQVTVSS,low polyreactivity
15,QVQLVESGGGLVQAGGSLRLSCAASGRTFGVYAMGWYRQAPGKERELVPAIRWSGGGTYYADSVKGRFTISRDTAKNTVYVQMNSLKPEDTAVYYCAASFQNSPYTRYTDMYYWGQGTQVTVTS,low polyreactivity
16,QVQLVESGGGLVQAGGSLRLSCAASGRTFGVYMGWYRQAPGKERELVAVISSGDSTNYADSVKGRFTISRDNAKNTVYLQMNSLKPEDTAVYYCNAYGSDRLTLDDYWGQGTQVTVSS,low polyreactivity
17,QVQLVESGGGLVQAGGSLRLSCAASGRTFGWNAMGWSRQAPGKERELVAAISRTGNTYYADSVKGRFTISRDNAKNTVYLQMNSLKPEDTAVYYCAKGRYYTPTYFRGVDLYDYWGQGTQVTVSS,low polyreactivity
18,QVQLVESGGGLVQAGGSLRLSCAASGRTFGWNAMGWYIQAPGKERELVAAITSGGSTSYADSVKGRFTISRDNEKNTVYLQMNCLKPEDTAVYYCAAYLGIYSRVNYWGQGTQVTVSS,low polyreactivity
19,QVQLVESGGGLVQAGGSLRLSCAASGRTFGWNVMGWYRQAPGKERELVAAISGGGTSTYYADSVKGRFTISRDNAKNTVYLQMNSLKPEDTGVYYCNAYYPGSYYPRSGRYDYWGQGTQVTVSS,high polyreactivity
20,QVQLVESGGGLVQAGGSLRLSCAASGRTFGWNVMGWYRQAPGKERELVAAISGSGASTYYADSVKGRFTISRDNAKNTVYLQMNSLKPEDTAVYYCAAVQGYRFYEYYYWGQGTKVTVSS,low polyreactivity
21,QVQLVESGGGLVQAGGSLRLSCAASGRTFGYAMGWYRQAPGKERERVAAISSGGGRTYYADSVKGRFTISRDNAKNTVYLQMNSLKPEDTAVFYCNARHIFGASRRARFGYWGQGTQVTVSS,high polyreactivity
